Measured values taken from patent US20150374794A1 (Novo Nordisk, published 2015).
Numbered stars: 1 amine (or outer) side, 2 acyl side, 3 side chain; on linkers, the order of the positions; unused ones are H or OH. Square brackets hold non-standard residues; d marks the D form. Side chains are listed from the residue outwards. Ends that are not written are not given here. * marks the point of attachment. C18 diacid = O=C(O)CCCCCCCCCCCCCCCCC(=O)*; γGlu = O=C(O)[C@H](CCC(=O)[*:2])N[*:1]; AEEA = NCCOCCOCC(=O)O; Aib = CC(C)(N)C(=O)O

How the values were obtained:
human GLP-1 receptor = human GLP-1 receptor (human, UniProt P43220 24-463); assay: cell-based or functional assay
human glucagon receptor = human glucagon receptor (human, UniProt P47871 26-477); assay: cell-based or functional assay
Sequence of human glucagon receptor (P47871 26-477): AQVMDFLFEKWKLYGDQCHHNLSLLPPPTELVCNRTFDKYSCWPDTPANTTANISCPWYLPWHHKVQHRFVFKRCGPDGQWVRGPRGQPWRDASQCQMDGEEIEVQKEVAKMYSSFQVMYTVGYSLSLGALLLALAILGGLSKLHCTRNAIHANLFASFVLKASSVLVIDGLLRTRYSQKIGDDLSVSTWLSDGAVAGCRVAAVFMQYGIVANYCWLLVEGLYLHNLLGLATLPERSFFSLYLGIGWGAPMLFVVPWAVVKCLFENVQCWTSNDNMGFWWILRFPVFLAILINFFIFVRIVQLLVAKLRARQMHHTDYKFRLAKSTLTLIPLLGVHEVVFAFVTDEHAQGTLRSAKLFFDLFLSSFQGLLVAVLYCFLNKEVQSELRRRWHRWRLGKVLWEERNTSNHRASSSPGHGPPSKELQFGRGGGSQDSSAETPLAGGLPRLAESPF

Row | Binder | EC50 GLP-1R, CRE luciferase reporter gene assay in BHK cells (human GLP-1 receptor) [nM] | EC50 GlucR, CRE luciferase reporter gene assay in BHK cells (human glucagon receptor) [nM]
1 | H[Aib]QGTFTSDLSKYLDSRRARDFVQWLLSK([γGlu-γGlu-AEEA-AEEA-γGlu-C18 diacid])-NH2 (N-terminus assumed; SMILES CC(C)C[C@H](NC(=O)[C@H](CC(C)C)NC(=O)[C@H](Cc1c[nH]c2ccccc12)NC(=O)[C@H](CCC(N)=O)NC(=O)[C@@H](NC(=O)[C@H](Cc1ccccc1)NC(=O)[C@H](CC(=O)O)NC(=O)[C@H](CCCNC(=N)N)NC(=O)[C@H](C)NC(=O)[C@H](CCCNC(=N)N)NC(=O)[C@H](CCCNC(=N)N)NC(=O)[C@H](CO)NC(=O)[C@H](CC(=O)O)NC(=O)[C@H](CC(C)C)NC(=O)[C@H](Cc1ccc(O)cc1)NC(=O)[C@H](CCCCN)NC(=O)[C@H](CO)NC(=O)[C@H](CC(C)C)NC(=O)[C@H](CC(=O)O)NC(=O)[C@H](CO)NC(=O)[C@@H](NC(=O)[C@H](Cc1ccccc1)NC(=O)[C@@H](NC(=O)CNC(=O)[C@H](CCC(N)=O)NC(=O)C(C)(C)NC(=O)[C@@H](N)Cc1c[nH]cn1)[C@@H](C)O)[C@@H](C)O)C(C)C)C(=O)N[C@@H](CO)C(=O)N[C@@H](CCCCNC(=O)CC[C@H](NC(=O)CC[C@H](NC(=O)COCCOCCNC(=O)COCCOCCNC(=O)CC[C@H](NC(=O)CCCCCCCCCCCCCCCCC(=O)O)C(=O)O)C(=O)O)C(=O)O)C(N)=O) | 0.005 | 0.109
2 | H[Aib]QGTFTSDLSKYLDK([γGlu-γGlu-AEEA-AEEA-γGlu-C18 diacid])RRARDFVQWLLST-NH2 (N-terminus assumed; SMILES CC(C)C[C@H](NC(=O)[C@H](Cc1ccc(O)cc1)NC(=O)[C@H](CCCCN)NC(=O)[C@H](CO)NC(=O)[C@H](CC(C)C)NC(=O)[C@H](CC(=O)O)NC(=O)[C@H](CO)NC(=O)[C@@H](NC(=O)[C@H](Cc1ccccc1)NC(=O)[C@@H](NC(=O)CNC(=O)[C@H](CCC(N)=O)NC(=O)C(C)(C)NC(=O)[C@@H](N)Cc1c[nH]cn1)[C@@H](C)O)[C@@H](C)O)C(=O)N[C@@H](CC(=O)O)C(=O)N[C@@H](CCCCNC(=O)CC[C@H](NC(=O)CC[C@H](NC(=O)COCCOCCNC(=O)COCCOCCNC(=O)CC[C@H](NC(=O)CCCCCCCCCCCCCCCCC(=O)O)C(=O)O)C(=O)O)C(=O)O)C(=O)N[C@@H](CCCNC(=N)N)C(=O)N[C@@H](CCCNC(=N)N)C(=O)N[C@@H](C)C(=O)N[C@@H](CCCNC(=N)N)C(=O)N[C@@H](CC(=O)O)C(=O)N[C@@H](Cc1ccccc1)C(=O)N[C@H](C(=O)N[C@@H](CCC(N)=O)C(=O)N[C@@H](Cc1c[nH]c2ccccc12)C(=O)N[C@@H](CC(C)C)C(=O)N[C@@H](CC(C)C)C(=O)N[C@@H](CO)C(=O)N[C@H](C(N)=O)[C@@H](C)O)C(C)C) | 0.008 | 0.054
3 | H[Aib]QGTFTSDLSKYLDTRRAKDFVQWLLSK([γGlu-γGlu-AEEA-AEEA-γGlu-C18 diacid])-NH2 (N-terminus assumed; SMILES CC(C)C[C@H](NC(=O)[C@H](CC(C)C)NC(=O)[C@H](Cc1c[nH]c2ccccc12)NC(=O)[C@H](CCC(N)=O)NC(=O)[C@@H](NC(=O)[C@H](Cc1ccccc1)NC(=O)[C@H](CC(=O)O)NC(=O)[C@H](CCCCN)NC(=O)[C@H](C)NC(=O)[C@H](CCCNC(=N)N)NC(=O)[C@H](CCCNC(=N)N)NC(=O)[C@@H](NC(=O)[C@H](CC(=O)O)NC(=O)[C@H](CC(C)C)NC(=O)[C@H](Cc1ccc(O)cc1)NC(=O)[C@H](CCCCN)NC(=O)[C@H](CO)NC(=O)[C@H](CC(C)C)NC(=O)[C@H](CC(=O)O)NC(=O)[C@H](CO)NC(=O)[C@@H](NC(=O)[C@H](Cc1ccccc1)NC(=O)[C@@H](NC(=O)CNC(=O)[C@H](CCC(N)=O)NC(=O)C(C)(C)NC(=O)[C@@H](N)Cc1c[nH]cn1)[C@@H](C)O)[C@@H](C)O)[C@@H](C)O)C(C)C)C(=O)N[C@@H](CO)C(=O)N[C@@H](CCCCNC(=O)CC[C@H](NC(=O)CC[C@H](NC(=O)COCCOCCNC(=O)COCCOCCNC(=O)CC[C@H](NC(=O)CCCCCCCCCCCCCCCCC(=O)O)C(=O)O)C(=O)O)C(=O)O)C(N)=O) | 0.015 | 0.672
4 | H[Aib]QGTFTSDLSKYLDERRAKDFVQWLLSK([γGlu-γGlu-AEEA-AEEA-γGlu-C18 diacid])-NH2 (N-terminus assumed; SMILES CC(C)C[C@H](NC(=O)[C@H](CC(C)C)NC(=O)[C@H](Cc1c[nH]c2ccccc12)NC(=O)[C@H](CCC(N)=O)NC(=O)[C@@H](NC(=O)[C@H](Cc1ccccc1)NC(=O)[C@H](CC(=O)O)NC(=O)[C@H](CCCCN)NC(=O)[C@H](C)NC(=O)[C@H](CCCNC(=N)N)NC(=O)[C@H](CCCNC(=N)N)NC(=O)[C@H](CCC(=O)O)NC(=O)[C@H](CC(=O)O)NC(=O)[C@H](CC(C)C)NC(=O)[C@H](Cc1ccc(O)cc1)NC(=O)[C@H](CCCCN)NC(=O)[C@H](CO)NC(=O)[C@H](CC(C)C)NC(=O)[C@H](CC(=O)O)NC(=O)[C@H](CO)NC(=O)[C@@H](NC(=O)[C@H](Cc1ccccc1)NC(=O)[C@@H](NC(=O)CNC(=O)[C@H](CCC(N)=O)NC(=O)C(C)(C)NC(=O)[C@@H](N)Cc1c[nH]cn1)[C@@H](C)O)[C@@H](C)O)C(C)C)C(=O)N[C@@H](CO)C(=O)N[C@@H](CCCCNC(=O)CC[C@H](NC(=O)CC[C@H](NC(=O)COCCOCCNC(=O)COCCOCCNC(=O)CC[C@H](NC(=O)CCCCCCCCCCCCCCCCC(=O)O)C(=O)O)C(=O)O)C(=O)O)C(N)=O) | 0.006 | 1.43
5 | H[Aib]QGTFTSDLSKYLDSRRARDFVQWLLSTK([γGlu-γGlu-AEEA-AEEA-γGlu-C18 diacid])-NH2 (N-terminus assumed; SMILES CC(C)C[C@H](NC(=O)[C@H](Cc1ccc(O)cc1)NC(=O)[C@H](CCCCN)NC(=O)[C@H](CO)NC(=O)[C@H](CC(C)C)NC(=O)[C@H](CC(=O)O)NC(=O)[C@H](CO)NC(=O)[C@@H](NC(=O)[C@H](Cc1ccccc1)NC(=O)[C@@H](NC(=O)CNC(=O)[C@H](CCC(N)=O)NC(=O)C(C)(C)NC(=O)[C@@H](N)Cc1c[nH]cn1)[C@@H](C)O)[C@@H](C)O)C(=O)N[C@@H](CC(=O)O)C(=O)N[C@@H](CO)C(=O)N[C@@H](CCCNC(=N)N)C(=O)N[C@@H](CCCNC(=N)N)C(=O)N[C@@H](C)C(=O)N[C@@H](CCCNC(=N)N)C(=O)N[C@@H](CC(=O)O)C(=O)N[C@@H](Cc1ccccc1)C(=O)N[C@H](C(=O)N[C@@H](CCC(N)=O)C(=O)N[C@@H](Cc1c[nH]c2ccccc12)C(=O)N[C@@H](CC(C)C)C(=O)N[C@@H](CC(C)C)C(=O)N[C@@H](CO)C(=O)N[C@H](C(=O)N[C@@H](CCCCNC(=O)CC[C@H](NC(=O)CC[C@H](NC(=O)COCCOCCNC(=O)COCCOCCNC(=O)CC[C@H](NC(=O)CCCCCCCCCCCCCCCCC(=O)O)C(=O)O)C(=O)O)C(=O)O)C(N)=O)[C@@H](C)O)C(C)C) | 0.02 | 1.21
6 | H[Aib]HGTFTSDLSKYLESKRAREFVQWLLK([γGlu-γGlu-AEEA-AEEA-γGlu-C18 diacid])T-NH2 (N-terminus assumed; SMILES CC(C)C[C@H](NC(=O)[C@H](Cc1ccc(O)cc1)NC(=O)[C@H](CCCCN)NC(=O)[C@H](CO)NC(=O)[C@H](CC(C)C)NC(=O)[C@H](CC(=O)O)NC(=O)[C@H](CO)NC(=O)[C@@H](NC(=O)[C@H](Cc1ccccc1)NC(=O)[C@@H](NC(=O)CNC(=O)[C@H](Cc1c[nH]cn1)NC(=O)C(C)(C)NC(=O)[C@@H](N)Cc1c[nH]cn1)[C@@H](C)O)[C@@H](C)O)C(=O)N[C@@H](CCC(=O)O)C(=O)N[C@@H](CO)C(=O)N[C@@H](CCCCN)C(=O)N[C@@H](CCCNC(=N)N)C(=O)N[C@@H](C)C(=O)N[C@@H](CCCNC(=N)N)C(=O)N[C@@H](CCC(=O)O)C(=O)N[C@@H](Cc1ccccc1)C(=O)N[C@H](C(=O)N[C@@H](CCC(N)=O)C(=O)N[C@@H](Cc1c[nH]c2ccccc12)C(=O)N[C@@H](CC(C)C)C(=O)N[C@@H](CC(C)C)C(=O)N[C@@H](CCCCNC(=O)CC[C@H](NC(=O)CC[C@H](NC(=O)COCCOCCNC(=O)COCCOCCNC(=O)CC[C@H](NC(=O)CCCCCCCCCCCCCCCCC(=O)O)C(=O)O)C(=O)O)C(=O)O)C(=O)N[C@H](C(N)=O)[C@@H](C)O)C(C)C) | – | 0.0011
7 | H[Aib]HGTFTSDLSKYLESKRAREFVQWLLK([γGlu-γGlu-γGlu-C18 diacid])T-NH2 (N-terminus assumed; SMILES CC(C)C[C@H](NC(=O)[C@H](Cc1ccc(O)cc1)NC(=O)[C@H](CCCCN)NC(=O)[C@H](CO)NC(=O)[C@H](CC(C)C)NC(=O)[C@H](CC(=O)O)NC(=O)[C@H](CO)NC(=O)[C@@H](NC(=O)[C@H](Cc1ccccc1)NC(=O)[C@@H](NC(=O)CNC(=O)[C@H](Cc1c[nH]cn1)NC(=O)C(C)(C)NC(=O)[C@@H](N)Cc1c[nH]cn1)[C@@H](C)O)[C@@H](C)O)C(=O)N[C@@H](CCC(=O)O)C(=O)N[C@@H](CO)C(=O)N[C@@H](CCCCN)C(=O)N[C@@H](CCCNC(=N)N)C(=O)N[C@@H](C)C(=O)N[C@@H](CCCNC(=N)N)C(=O)N[C@@H](CCC(=O)O)C(=O)N[C@@H](Cc1ccccc1)C(=O)N[C@H](C(=O)N[C@@H](CCC(N)=O)C(=O)N[C@@H](Cc1c[nH]c2ccccc12)C(=O)N[C@@H](CC(C)C)C(=O)N[C@@H](CC(C)C)C(=O)N[C@@H](CCCCNC(=O)CC[C@H](NC(=O)CC[C@H](NC(=O)CC[C@H](NC(=O)CCCCCCCCCCCCCCCCC(=O)O)C(=O)O)C(=O)O)C(=O)O)C(=O)N[C@H](C(N)=O)[C@@H](C)O)C(C)C) | – | 0.0029
